Values quoted from earlier work, collected in PMC10979411.

Biological target: Nterm (UniProt position 44, ADPEAGIGAVL)
Test: NMR
Settings: micelle-associated melittin

Melittin (Apis mellifera (inferred; organism not stated in the article))
pKa: 7.15–8.15
